{"source": "patent US20220153819A1", "about": "(Regeneron, published 2022)", "binders": {"B1": {"name": "REGN5551, anti-Protein A x anti-C1q bispecific antibody (bispecific antibody, V domains shown)", "VH 1": "EVQLVESGGGLVQPGGSLRLSCAASGFTFTSYDMHWVRQATGKGLEWVSNIDPAGNTFYPGSVKGRFTISRENAKKSLYLQMNSLRAGDTAVYYCARNLGNWGYDHWGQGTLVTVSS", "VH 2": "EVQLVESGGGVVQPGGSLRLSCAASGFSLDDYAMHWVRQTPGKGLEWVSLISGDGSRTSYADSVKGRFTISRDNSKNSLYLKMNSLRTEDTALYYCTKDPHNSNWFDPWGQGTLVTVSS", "VL": "not shown", "notes": "also called bsC1q × Protein A; bs hC1q × protein A"}, "B2": {"name": "REGN5067, anti-IsdB x anti-C1q bispecific antibody (bispecific antibody, V domains shown)", "VH 1": "EVQLVESGGGLVQPGRSLRLSCTTSGFTFDDYAMHWVRQVPGQGLEWVAGLSWNSDTIGYADSVKGRFTISRDNAKNSLYLQMKSLKAEDTALYYCTKDFYHSLNNWNYYYFDYWGQGTLVTVSS", "VH 2": "EVQLVQSGAEVKKPGESLKIFCKGSGYSFINDWIGWVRQMPGKGLEWMGLIFPGDSDTRYSPVFQGHVTISADQSIDTAYLQWNSLKASDTAIYYCAVLRYWHFAIWGRGTLVTVSS", "VL": "not shown"}}, "key": {"[1]": {"target": "T1, human complement component 1q (C1q) (human, UniProt P02745 23-245; P02746 28-253; P02747 29-245)", "T1 sequence (P02745 23-245, chain 1 of 3)": "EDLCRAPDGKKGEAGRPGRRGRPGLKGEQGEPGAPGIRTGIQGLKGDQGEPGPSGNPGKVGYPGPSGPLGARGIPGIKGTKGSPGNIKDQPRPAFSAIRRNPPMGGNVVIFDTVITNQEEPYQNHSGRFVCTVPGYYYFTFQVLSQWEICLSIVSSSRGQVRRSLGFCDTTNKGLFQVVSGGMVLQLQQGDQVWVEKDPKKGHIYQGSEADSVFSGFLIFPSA", "T1 sequence (P02746 28-253, chain 2 of 3)": "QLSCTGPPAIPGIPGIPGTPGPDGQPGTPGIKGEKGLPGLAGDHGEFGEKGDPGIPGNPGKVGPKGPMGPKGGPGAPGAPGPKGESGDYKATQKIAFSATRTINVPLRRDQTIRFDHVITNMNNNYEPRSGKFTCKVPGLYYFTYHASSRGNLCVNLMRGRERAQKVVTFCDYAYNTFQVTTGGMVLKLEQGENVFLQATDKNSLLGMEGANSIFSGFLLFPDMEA", "T1 sequence (P02747 29-245, chain 3 of 3)": "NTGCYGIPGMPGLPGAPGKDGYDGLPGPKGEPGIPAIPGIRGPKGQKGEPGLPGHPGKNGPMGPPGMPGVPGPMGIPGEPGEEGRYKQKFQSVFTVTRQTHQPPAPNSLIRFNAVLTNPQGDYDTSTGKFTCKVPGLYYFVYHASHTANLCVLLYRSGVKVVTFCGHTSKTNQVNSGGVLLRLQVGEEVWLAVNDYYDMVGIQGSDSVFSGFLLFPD"}, "[2]": {"target": "T2, Protein A of S. aureus (ELISA on S. aureus Newman Δspa as printed) (Staphylococcus aureus)", "T2 construct": "whole, on cells", "test": "ELISA, plate coated with S. aureus Newman Δspa, luminescence"}, "IsdB.6×(His) [3]": {"target": "T3, IsdB.6×(His) (Staphylococcus aureus, UniProt A6QG30 41-613)", "test": "SPR (Biacore 8k), 25C; IsdB-6xHis captured via anti-His, bsAb injected"}, "biotinylated human C1q [4]": {"target": "T4, biotinylated human C1q (human, UniProt P02745 23-245; P02746 28-253; P02747 29-245)", "T4 construct": "also called Bt hC1q; bt-hC1q", "T4 sequence (P02745 23-245, chain 1 of 3)": "as the sequence (P02745 23-245, chain 1 of 3) above", "T4 sequence (P02746 28-253, chain 2 of 3)": "as the sequence (P02746 28-253, chain 2 of 3) above", "T4 sequence (P02747 29-245, chain 3 of 3)": "as the sequence (P02747 29-245, chain 3 of 3) above"}, "biotinylated human C1q [5]": {"target": "T4, biotinylated human C1q", "remark": "listed apart in the source"}, "IsdB.6×(His) [6]": {"target": "T3, IsdB.6×(His)", "test": "SPR (Biacore T200), 25C; bsAb captured, IsdB-6xHis injected"}, "biotinylated human C1q [7]": {"target": "T4, biotinylated human C1q", "remark": "listed apart in the source"}, "biotinylated human C1q [8]": {"target": "T4, biotinylated human C1q", "remark": "listed apart in the source"}, "IsdB.6×(His) [9]": {"target": "T3, IsdB.6×(His)", "test": "SPR (Biacore T200), 37C; bsAb captured, IsdB-6xHis injected"}, "[10]": {"target": "T1, human complement component 1q (C1q)", "test": "SPR (Biacore T200), 37C; bsAb captured via anti-human F(ab')2, hC1q injected"}, "[11]": {"target": "T1, human complement component 1q (C1q)"}, "[12]": {"target": "T1, human complement component 1q (C1q)", "test": "SPR (Biacore T200), 25C; bsAb captured via anti-human F(ab')2, hC1q injected"}}, "note": "Like-named read-outs stand apart in the source and are kept apart here."}
{"binder": "B1", "values": [{"measurement": "Kd", "setting": "[1]", "value": 1.36, "unit": "nM"}, {"measurement": "koff", "setting": "[1]", "value": 0.00488, "unit": "s⁻¹"}, {"measurement": "kon", "setting": "[1]", "value": "3.06e+06", "unit": "M⁻¹ s⁻¹"}, {"measurement": "EC50", "setting": "[2]", "value": 0.148, "unit": "nM"}]}
{"binder": "B2", "values": [{"measurement": "Kd", "setting": "IsdB.6×(His) [3]", "value": 3.01, "unit": "nM"}, {"measurement": "koff", "setting": "IsdB.6×(His) [3]", "value": 0.000989, "unit": "s⁻¹"}, {"measurement": "kon", "setting": "IsdB.6×(His) [3]", "value": 328000, "unit": "M⁻¹ s⁻¹"}, {"measurement": "t1/2", "setting": "IsdB.6×(His) [3]", "value": 11.7, "unit": "min"}, {"measurement": "Kd", "setting": "biotinylated human C1q [4]", "value": 3770, "unit": "nM"}, {"measurement": "koff", "setting": "biotinylated human C1q [5]", "value": 0.844, "unit": "s⁻¹"}, {"measurement": "kon", "setting": "biotinylated human C1q [5]", "value": 224000, "unit": "M⁻¹ s⁻¹"}, {"measurement": "t1/2", "setting": "biotinylated human C1q [5]", "value": 0.01, "unit": "min"}, {"measurement": "Kd", "setting": "IsdB.6×(His) [6]", "value": 1.7, "unit": "nM"}, {"measurement": "koff", "setting": "IsdB.6×(His) [6]", "value": 0.000204, "unit": "s⁻¹"}, {"measurement": "kon", "setting": "IsdB.6×(His) [6]", "value": 120000, "unit": "M⁻¹ s⁻¹"}, {"measurement": "t1/2", "setting": "IsdB.6×(His) [6]", "value": 56.6, "unit": "min"}, {"measurement": "koff", "setting": "biotinylated human C1q [7]", "value": 0.365, "unit": "s⁻¹"}, {"measurement": "kon", "setting": "biotinylated human C1q [7]", "value": 168000, "unit": "M⁻¹ s⁻¹"}, {"measurement": "t1/2", "setting": "biotinylated human C1q [7]", "value": 0.03, "unit": "min"}, {"measurement": "Kd", "setting": "biotinylated human C1q [8]", "value": 2180, "unit": "nM"}, {"measurement": "Kd", "setting": "IsdB.6×(His) [9]", "value": 3.33, "unit": "nM"}, {"measurement": "koff", "setting": "IsdB.6×(His) [9]", "value": 0.00052, "unit": "s⁻¹"}, {"measurement": "kon", "setting": "IsdB.6×(His) [9]", "value": 156000, "unit": "M⁻¹ s⁻¹"}, {"measurement": "t1/2", "setting": "IsdB.6×(His) [9]", "value": 22.2, "unit": "min"}, {"measurement": "koff", "setting": "[10]", "value": 0.0134, "unit": "s⁻¹"}, {"measurement": "kon", "setting": "[10]", "value": "6.52e+06", "unit": "M⁻¹ s⁻¹"}, {"measurement": "t1/2", "setting": "[10]", "value": 0.9, "unit": "min"}, {"measurement": "Kd", "setting": "[11]", "value": 2.05, "unit": "nM"}, {"measurement": "koff", "setting": "[12]", "value": 0.00435, "unit": "s⁻¹"}, {"measurement": "kon", "setting": "[12]", "value": "5.78e+06", "unit": "M⁻¹ s⁻¹"}, {"measurement": "t1/2", "setting": "[12]", "value": 2.7, "unit": "min"}]}
